Measured values from the supplement of paper PMC10567573.

B1: PCMTD2 (parent)
chain: FFIRTSDSFDKFDFCEPSFVTGNC

Variants of: B1
Test: protein stability index of a GFP-peptide fusion (GPS, HEK-293T) (PSI 1-6); higher = more stable
Settings: c terminus: a fixed tail appended
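Further: lentivirally expressed fusions sorted by FACS into six bins by GFP to DsRed ratio, PSI derived from sequencing read proportions per bin multiplied by bin number.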

First: FLIRTSDSFDKFDFCEPSFVTGNC [F2L]
Second: FNIRTSDSFDKFDFCEPSFVTGNC [F2N]
The protein stability index of the first is higher: 3.25 for the first, 2.35 for the second.

Going from FEIRTSDSFDKFDFCEPSFVTGNC [F2E] to FDIRTSDSFDKFDFCEPSFVTGNC [F2D], the protein stability index rises from 2.15 to 2.71.

Going from FRIRTSDSFDKFDFCEPSFVTGNC [F2R] to FWIRTSDSFDKFDFCEPSFVTGNC [F2W], the protein stability index rises from 1.65 to 3.73.

Going from FTIRTSDSFDKFDFCEPSFVTGNC [F2T] to FAIRTSDSFDKFDFCEPSFVTGNC [F2A], the protein stability index rises from 1.76 to 2.1.

Compared with FFIRTSDSFDKFDFCEPSFVTHNC [G22H], FFIRTSDSFDKFDFCEPSFVTYNC [G22Y] is lower in protein stability index: 3.63 for the first, 1.85 for the second.

Going from FFIRTSDSFDKFDFCEPSFVTINC [G22I] to FFIRTSDSFDKFDFCEPSFVTFNC [G22F], the protein stability index falls from 2.8 to 1.68.

Going from FFIRTSDSFDKFDFCEPSFVTRNC [G22R] to FFIRTSDSFDKFDFCEPSFVTENC [G22E], the protein stability index rises from 1.87 to 2.16.

Compared with FFIRTSDSFDVFDFCEPSFVTGNC [K11V], FFIRTSDSFDMFDFCEPSFVTGNC [K11M] is higher in protein stability index: 3.4 for the first, 4.28 for the second.

First: FFIRTSDSFDEFDFCEPSFVTGNC [K11E]
Second: FFIRTSDSFDCFDFCEPSFVTGNC [K11C]
The protein stability index of the first is higher: 2.95 for the first, 2.65 for the second.

Compared with FFIRTSDPFDKFDFCEPSFVTGNC [S8P], FFIRTSDFFDKFDFCEPSFVTGNC [S8F] is higher in protein stability index: 2.35 for the first, 2.38 for the second.

First: FFIRTSDEFDKFDFCEPSFVTGNC [S8E]
Second: FFIRTSDCFDKFDFCEPSFVTGNC [S8C]
The protein stability index of the first is lower: 1.91 for the first, 3.14 for the second.

First: FFIRTSDVFDKFDFCEPSFVTGNC [S8V]
Second: FFIRTSDSFDKFFFCEPSFVTGNC [D13F]
The protein stability index of the first is higher: 4.76 for the first, 3.38 for the second.

First: FFIRTSDSFDKFGFCEPSFVTGNC [D13G]
Second: FFIRTSDSFDKFEFCEPSFVTGNC [D13E]
The protein stability index of the first is higher: 2.78 for the first, 2.74 for the second.

First: FFIRTSDSFDKFMFCEPSFVTGNC [D13M]
Second: FFIRTSDSFDKFIFCEPSFVTGNC [D13I]
The protein stability index of the first is lower: 2.65 for the first, 3.44 for the second.

First: FFIRTSDSFDKFSFCEPSFVTGNC [D13S]
Second: FFIRTSDSFDKFLFCEPSFVTGNC [D13L]
The protein stability index of the first is lower: 2.57 for the first, 3.27 for the second.

First: FFIRTSDSFDKFDFCEPSYVTGNC [F19Y]
Second: FFIRTSDSFDKFDFCEPSWVTGNC [F19W]
The protein stability index of the first is lower: 1.67 for the first, 3.83 for the second.

First: FFIRTSDSFDKFDFCEPSRVTGNC [F19R]
Second: FFIRTSDSFDKFDFCEPSNVTGNC [F19N]
The protein stability index of the first is higher: 2.21 for the first, 1.64 for the second.

First: FFIRTSDSFDKFDFCEPSSVTGNC [F19S]
Second: FFIRTSDSFDKFDFCEPSIVTGNC [F19I]
The protein stability index of the first is lower: 1.66 for the first, 3.34 for the second.

Compared with FFIRTSDSFDKFDFCEPSMVTGNC [F19M], FFIRTSDSFDKFDFCEPSEVTGNC [F19E] is lower in protein stability index: 1.68 for the first, 1.67 for the second.

Compared with FFIRTSDSFDKFDKCEPSFVTGNC [F14K], FFIRTSDSFDKFDPCEPSFVTGNC [F14P] is higher in protein stability index: 1.99 for the first, 2.55 for the second.

Compared with FFIRTSDSFDKFDYCEPSFVTGNC [F14Y], FFIRTSDSFDKFDDCEPSFVTGNC [F14D] is lower in protein stability index: 2.92 for the first, 2.42 for the second.

First: FFIRTSDSFDKFDHCEPSFVTGNC [F14H]
Second: FFIRTSDSFDKFDGCEPSFVTGNC [F14G]
The protein stability index of the first is higher: 1.94 for the first, 1.82 for the second.

Compared with FFIRTSDSFDKFDCCEPSFVTGNC [F14C], FFIRTSDSFDKFDSCEPSFVTGNC [F14S] is lower in protein stability index: 2.76 for the first, 1.84 for the second.

First: FFIRTSDSFDKFDRCEPSFVTGNC [F14R]
Second: FFIRTSDSFDKFDECEPSFVTGNC [F14E]
The protein stability index of the first is higher: 2.37 for the first, 2 for the second.

First: FFIRTSDSFDKFDFCEPFFVTGNC [S18F]
Second: FFIRTSDSFDKFDFCEPLFVTGNC [S18L]
The protein stability index of the first is lower: 2.02 for the first, 4.02 for the second.

First: FFIRTSDSFDKFDFCEPPFVTGNC [S18P]
Second: FFIRTSDSFDKFDFCEPVFVTGNC [S18V]
The protein stability index of the first is higher: 2.57 for the first, 2.45 for the second.

Compared with FFIRTSDSFDKFDFCEPYFVTGNC [S18Y], FFIRTSDSFDKFDFCEPRFVTGNC [S18R] is higher in protein stability index: 2.11 for the first, 2.39 for the second.

Going from FFIRTSDSFDKFDFCEPMFVTGNC [S18M] to FFIRTSDSFDKFDFCEPSFETGNC [V20E], the protein stability index falls from 3.36 to 2.26.

Compared with FFIRTSDSFDKFDFCEPSFCTGNC [V20C], FFIRTSDSFDKFDFCEPSFPTGNC [V20P] is lower in protein stability index: 2.37 for the first, 1.62 for the second.

First: FFIRTSDSFDKFDFCEPSFYTGNC [V20Y]
Second: FFIRTSDSFDKFDFCEPSFGTGNC [V20G]
The protein stability index of the first is higher: 1.91 for the first, 1.61 for the second.

Going from FFIRTSDSFDKFDFCEPSFDTGNC [V20D] to FFIRTSDSFDKFDFCEPSFSTGNC [V20S], the protein stability index rises from 1.76 to 2.47.

First: FFIRTSDSFDKFDFCEPSFQTGNC [V20Q]
Second: FFIRTSDSFDKFDFCEPSFKTGNC [V20K]
The protein stability index of the first is lower: 1.79 for the first, 1.86 for the second.

First: FFIRTSDSFEKFDFCEPSFVTGNC [D10E]
Second: FFIRTSDSFTKFDFCEPSFVTGNC [D10T]
The protein stability index of the first is lower: 2.27 for the first, 2.81 for the second.

Going from FFIRTSDSFHKFDFCEPSFVTGNC [D10H] to FFIRTSDSFAKFDFCEPSFVTGNC [D10A], the protein stability index falls from 2.83 to 2.7.

Compared with FFIRTSDSFLKFDFCEPSFVTGNC [D10L], FFIRTSDSFMKFDFCEPSFVTGNC [D10M] is higher in protein stability index: 2.67 for the first, 3.52 for the second.

Compared with FFIRTSTSFDKFDFCEPSFVTGNC [D7T], FFIRTSSSFDKFDFCEPSFVTGNC [D7S] is higher in protein stability index: 3.2 for the first, 3.69 for the second.

Compared with FFIRTSHSFDKFDFCEPSFVTGNC [D7H], FFIRTSNSFDKFDFCEPSFVTGNC [D7N] is higher in protein stability index: 1.69 for the first, 2.56 for the second.

Compared with FFIRTSESFDKFDFCEPSFVTGNC [D7E], FFIRTSWSFDKFDFCEPSFVTGNC [D7W] is lower in protein stability index: 3.48 for the first, 3.44 for the second.

Going from FFIRTSFSFDKFDFCEPSFVTGNC [D7F] to FFIRTSYSFDKFDFCEPSFVTGNC [D7Y], the protein stability index falls from 3.74 to 2.41.

Compared with DFIRTSDSFDKFDFCEPSFVTGNC [F1D], NFIRTSDSFDKFDFCEPSFVTGNC [F1N] is lower in protein stability index: 2.41 for the first, 2.4 for the second.

Going from CFIRTSDSFDKFDFCEPSFVTGNC [F1C] to MFIRTSDSFDKFDFCEPSFVTGNC [F1M], the protein stability index falls from 2.93 to 2.32.

First: QFIRTSDSFDKFDFCEPSFVTGNC [F1Q]
Second: TFIRTSDSFDKFDFCEPSFVTGNC [F1T]
The protein stability index of the first is higher: 1.87 for the first, 1.8 for the second.

Going from FFIRTSDSFDKFDFCEPSFVTGDC [N23D] to FFIRTSDSFDKFDFCEPSFVTGHC [N23H], the protein stability index falls from 2.84 to 2.16.

First: FFIRTSDSFDKFDFCEPSFVTGYC [N23Y]
Second: FFIRTSDSFDKFDFCEPSFVTGRC [N23R]
The protein stability index of the first is lower: 1.61 for the first, 2.88 for the second.

Compared with FFIRTSDSFDKFDFCEPSFVTGPC [N23P], FFIRTSDSFDKFDFCEPSFVTGTC [N23T] is higher in protein stability index: 1.39 for the first, 2.7 for the second.

With FFIRTSDSFDKFDFCEPSFVTGEC [N23E] the protein stability index was 2.27.
